This note sets out measurements from the supplement of paper PMC11246515.

The nature of this data set: total protein half-life in vivo (active degradation + dilution); higher = more stable protein.
The mark [1] stands for this setting: E. coli NCM3722 delta-clpP, growth: N-lim chemostat, doubling time 6 h.
The mark [2] stands for this setting: E. coli NCM3722 delta-hslV, growth: N-lim chemostat, doubling time 6 h.
Setting [3] is: wild type E. coli NCM3722, growth: N-lim chemostat, doubling time 6 h.
Where [4] appears, read: wild type E. coli NCM3722, growth: N-lim chemostat, doubling time 12 h.
The mark [5] stands for this setting: E. coli NCM3722 delta-clpP delta-lon delta-hslV, growth: N-lim chemostat, doubling time 6 h.
Where [6] appears, read: wild type E. coli NCM3722, growth: C-lim chemostat, doubling time 6 h.
Setting [7] is: wild type E. coli NCM3722, growth: C-lim chemostat, doubling time 12 h.
Setting [8] is: wild type E. coli NCM3722, growth: P-lim chemostat, doubling time 6 h.
Where [9] appears, read: wild type E. coli NCM3722, growth: P-lim chemostat, doubling time 12 h.
[10] abbreviates: E. coli NCM3722 delta-lon, growth: N-lim chemostat, doubling time 6 h.
The mark [11] stands for this setting: E. coli NCM3722 delta-smpB, growth: N-lim chemostat, doubling time 6 h.
[12] abbreviates: wild type E. coli NCM3722, growth: C-lim chemostat, doubling time 3 h.

± gives the standard deviation of the averaged measurements.

As to “MERVYRTDLKLLRYFLAVAEELHFGRAAARLNMSQPPLSIHIKELENQLGTQLFIRHSRSVVLTHAGKILMEESRRLLVNANNVLARIEQIGRGEAGRIELGVVGTAMWGRMRPVMRRFLRENPNVDVLFREKMPAMQMALLERRELDAGIWRMATEPPTGFTSLRLHESAFLVAMPEEHHLSSFSTVPLEALRDEYFVTMPPVYTDWDFLQRVCQQVGFSPVVIREVNEPQTVLAMVSMGIGITLIADSYAQMNWPGVIFRPLKQRIPADLYIVYETQQVTPAMVKLLAALTQ”, the “total protein half-life in vivo” value reads like this: under setting [1], 3.26 ± 0.21 h; under setting [2], 3.03 h; under setting [3], 3.31 h; under setting [4], 5.46 h.
As to “MSSRVLTPDVVGIDALVHDHQTVLAKAEGGVVAVFANNAPAFYAVTPARLAELLALEEKLARPGSDVALDDQLYQEPQAAPVAVPMGKFAMYPDWQPDADFIRLAALWGVALREPVTTEELASFIAYWQAEGKVFHHVQWQQKLARSLQIGRASNGGLPKRDVNTVSEPDSQIPPGFRG [P0A8J2]”, the “total protein half-life in vivo” value under setting [5] stood at 4.71 ± 0.31 h; the “total protein half-life in vivo” value under setting [1] came out at 4.26 h; the “total protein half-life in vivo” value under setting [2] came out at 1.78 ± 0.14 h; the “total protein half-life in vivo” value under setting [6] came to 3.49 h; the “total protein half-life in vivo” value under setting [7] turned out to be 5.15 ± 0.3 h; the “total protein half-life in vivo” value under setting [4] was found to be 2.93 ± 0.94 h. For the same sequence, the “total protein half-life in vivo” value by setting is: under setting [8], 2.68 ± 0.39 h; under setting [9], 5.6 ± 0.28 h.
As to “MAISTPMLVTFCVYIFGMILIGFIAWRSTKNFDDYILGGRSLGPFVTALSAGASDMSGWLLMGLPGAVFLSGISESWIAIGLTLGAWINWKLVAGRLRVHTEYNNNALTLPDYFTGRFEDKSRILRIISALVILLFFTIYCASGIVAGARLFESTFGMSYETALWAGAAATILYTFIGGFLAVSWTDTVQASLMIFALILTPVIVIISVGGFGDSLEVIKQKSIENVDMLKGLNFVAIISLMGWGLGYFGQPHILARFMAADSHHSIVHARRISMTWMILCLAGAVAVGFFGIAYFNDHPALAGAVNQNAERVFIELAQILFNPWIAGILLSAILAAVMSTLSCQLLVCSSAITEDLYKAFLRKHASQKELVWVGRVMVLVVALVAIALAANPENRVLGLVSYAWAGFGAAFGPVVLFSVMWSRMTRNGALAGMIIGALTVIVWKQFGWLGLYEIIPGFIFGSIGIVVFSLLGKAPSAAMQKRFAEADAHYHSAPPSRLQES”, the “total protein half-life in vivo” value is, setting by setting: under setting [5], 5.44 ± 0.019 h; under setting [1], 4.61 ± 0.21 h; under setting [2], 4.68 ± 0.42 h; under setting [10], 4.66 h; under setting [11], 4.592 ± 0.044 h; under setting [12], 3.51 ± 0.45 h. The “total protein half-life in vivo” value reads like this: under setting [6], 5.52 ± 0.072 h; under setting [7], 9.72 ± 1.1 h; under setting [4], 7.25 ± 1.6 h; under setting [8], 5.18 ± 0.42 h; under setting [9], 10.6 ± 0.28 h.
Regarding “MCEHHHAAKHILCSQCDMLVALPRLEHGQKAACPRCGTTLTVAWDAPRQRPTAYALAALFMLLLSNLFPFVNMNVAGVTSEITLLEIPGVLFSEDYASLGTFFLLFVQLVPAFCLITILLLVNRAELPVRLKEQLARVLFQLKTWGMAEIFLAGVLVSFVKLMAYGSIGVGSSFLPWCLFCVLQLRAFQCVDRRWLWDDIAPMPELRQPLKPGVTGIRQGLRSCSCCTAILPADEPVCPRCSTKGYVRRRNSLQWTLALLVTSIMLYLPANILPIMVTDLLGSKMPSTILAGVILLWSEGSYPVAAVIFLASIMVPTLKMIAIAWLCWDAKGHGKRDSERMHLIYEVVEFVGRWSMIDVFVIAVLSALVRMGGLMSIYPAMGALMFALVVIMTMFSAMTFDPRLSWDRQPESEHEES [P0AFL9]”, the “total protein half-life in vivo” value under setting [4] turned out to be 11 h.
“MRIHILGICGTFMGGLAMLARQLGHEVTGSDANVYPPMSTLLEKQGIELIQGYDASQLEPQPDLVIIGNAMTRGNPCVEAVLEKNIPYMSGPQWLHDFVLRDRWVLAVAGTHGKTTTAGMATWILEQCGYKPGFVIGGVPGNFEVSAHLGESDFFVIEADEYDCAFFDKRSKFVHYCPRTLILNNLEFDHADIFDDLKAIQKQFHHLVRIVPGQGRIIWPENDINLKQTMAMGCWSEQELVGEQGHWQAKKLTTDASEWEVLLDGEKVGEVKWSLVGEHNMHNGLMAIAAARHVGVAPADAANALGSFINARRRLELRGEANGVTVYDDFAHHPTAILATLAALRGKVGGTARIIAVLEPRSNTMKMGICKDDLAPSLGRADEVFLLQPAHIPWQVAEVAEACVQPAHWSGDVDTLADMVVKTAQPGDHILVMSNGGFGGIHQKLLDGLAKKAEAAQ”: the “total protein half-life in vivo” value amounted to 5.233 ± 0.034 h under setting [5]; 5.14 ± 0.089 h under setting [2]; 6.73 ± 0.28 h under setting [10]; 5.26 ± 0.38 h under setting [11]; 2.84 ± 0.21 h under setting [12]; 12.236 ± 0.0033 h under setting [7]. Also, the “total protein half-life in vivo” value by setting is: under setting [3], 5.58 ± 0.38 h; under setting [4], 9.82 ± 1.3 h; under setting [8], 5.99 ± 0.1 h; under setting [9], 12.4 ± 0.71 h.
Regarding “MPAPVVLILAAGRGECFLASGGNTHKCIGWRQSPEVAPYRWPFEENGRTFDLAIEPQITTNDLRLMLRLALAGGGITIATQETFRPYIESGKLVSLLDDFLPQFPGFYLYFPQRRNIAPKLRALIDYVKEWRQQLA”, the “total protein half-life in vivo” value under setting [5] was found to be 4.63 h.
For “MIIYLHGFDSNSPGNHEKVLQLQFIDPDVRLISYSTRHPKHDMQHLLKEVDKMLQLNVDERPLICGVGLGGYWAERIGFLCDIRQVIFNPNLFPYENMEGKIDRPEEYADIATKCVTNFREKNRDRCLVILSRNDEALNSQRTSEELHHYYEIVWDEEQTHKFKNISPHLQRIKAFKTLG [P0A8E1]”, the “total protein half-life in vivo” value runs as follows: under setting [5], 4.77 ± 0.071 h; under setting [1], 4.58 ± 1.1 h; under setting [2], 4.44 ± 0.73 h; under setting [10], 4.75 ± 0.35 h; under setting [11], 4.37 ± 0.91 h; under setting [12], 2.64 ± 0.47 h. For the same sequence, the “total protein half-life in vivo” value runs as follows: under setting [6], 4.65 ± 0.2 h; under setting [7], 7.7 ± 1.6 h; under setting [3], 3.92 ± 0.39 h; under setting [4], 6.49 ± 0.25 h; under setting [8], 5.07 ± 0.15 h; under setting [9], 10.6 ± 0.38 h.
As to “MPYDSVYSEKRPPGTLRTAWRKFYSDASAMVGLYGCAGLAVLCIFGGWFAPYGIDQQFLGYQLLPPSWSRYGEVSFFLGTDDLGRDVLSRLLSGAAPTVGGAFVVTLAATICGLVLGTFAGATHGLRSAVLNHILDTLLAIPSLLLAIIVVAFAGPSLSHAMFAVWLALLPRMVRSIYSMVHDELEKEYVIAARLDGASTLNILWFAVMPNITAGLVTEITRALSMAILDIAALGFLDLGAQLPSPEWGAMLGDALELIYVAPWTVMLPGAAIMISVLLVNLLGDGVRRAIIAGVE [P0AGH5]”, the “total protein half-life in vivo” value is 6.49 h under setting [5]; 6.66 h under setting [1]; 3.28 ± 0.12 h under setting [12]; 11.5 h under setting [7]; 6.2 ± 0.26 h under setting [3]; 12.8 h under setting [4]. Also, the “total protein half-life in vivo” value by setting is: under setting [8], 5.92 h; under setting [9], 13.7 h.
“MTIWVDADACPNVIKEILYRAAERMQMPLVLVANQSLRVPPSRFIRTLRVAAGFDVADNEIVRQCEAGDLVITADIPLAAEAIEKGAAALNPRGERYTPATIRERLTMRDFMDTLRASGIQTGGPDSLSQRDRQAFAAELEKWWLEVQRSRG [P0A8D3]”: the “total protein half-life in vivo” value was 3.56 ± 0.87 h under setting [5]; 3.08 h under setting [1]; 3.2 ± 0.18 h under setting [2]; 3.89 ± 0.53 h under setting [10]; 3.16 ± 0.032 h under setting [11]; 2.73 ± 0.094 h under setting [12]. Besides, the “total protein half-life in vivo” value under setting [6] turned out to be 4.33 ± 0.21 h; the “total protein half-life in vivo” value under setting [7] was 8.06 ± 2.6 h; the “total protein half-life in vivo” value under setting [3] was found to be 3.55 ± 0.43 h; the “total protein half-life in vivo” value under setting [4] was determined as 4.5 ± 0.6 h; the “total protein half-life in vivo” value under setting [8] was 5.28 ± 0.43 h; the “total protein half-life in vivo” value under setting [9] came to 9.109 ± 0.034 h.
